The results in this text go back to patent publication US20040072255.

The subject of data set [1] is rat fast skeletal troponin I, beta or diphosphorylated form.
The subject of data set [2] is rat fast skeletal troponin I, alpha or monophosphorylated form.

Sequence of rat fast skeletal troponin I, alpha or monophosphorylated form (chain, as listed by the source): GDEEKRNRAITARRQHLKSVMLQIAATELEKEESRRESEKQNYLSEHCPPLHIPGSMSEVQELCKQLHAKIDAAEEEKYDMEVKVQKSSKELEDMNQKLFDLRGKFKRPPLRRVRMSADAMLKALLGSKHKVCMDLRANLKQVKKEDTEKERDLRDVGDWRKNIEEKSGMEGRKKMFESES
Sequence of rat fast skeletal troponin I, beta or diphosphorylated form (chain, as listed by the source): as above

As for Protein phosphatase-1 (Sigma), the “dephosphorylation of myofibrils prior to 2-dimensional SDS-PAGE” value in data set [1] and in data set [2] was “Neither form was evident in samples after dephosphorylation with PP-I” each time.
